In article PMC4137731, “C-Terminal Domain Swapping of SSB Changes the Size of the ssDNA Binding Site”:

What was measured:
Details in all cases: protein: recombinant; tags: none (untagged); chain copies: 4; label: 5' 32P
KpSSBnPaSSBc [1] = biological target: T1, KpSSBnPaSSBc (Klebsiella pneumoniae subsp. pneumoniae …, UniProt A6TGW7 1-91+P40947:91-165, internal_change); test: EMSA; monomer conc.; 2 complexes; 20 mM Tris-HCl pH 8.0, 100 mM NaCl, 25°C 30 min, 1.7 nM DNA, protein 0-5000 nM; native 8% PAGE in TBE at 4°C
KpSSBnPaSSBc [2] = biological target: T1, KpSSBnPaSSBc; test: EMSA; monomer conc.; 1 complex; 20 mM Tris-HCl pH 8.0, 100 mM NaCl, 25°C 30 min, 1.7 nM DNA, protein 0-5000 nM; native 8% PAGE in TBE at 4°C
KpSSBnStSSBc [3] = biological target: T2, KpSSBnStSSBc (Klebsiella pneumoniae subsp. pneumoniae …, UniProt A6TGW7 1-91+P0A2F6:92-176, internal_change); test: as above
KpSSBnPaSSBc [4] = biological target: T1, KpSSBnPaSSBc; test: EMSA; no complex observed up to 5000 nM; 20 mM Tris-HCl pH 8.0, 100 mM NaCl, 25°C 30 min, 1.7 nM DNA, protein 0-5000 nM; native 8% PAGE in TBE at 4°C
KpSSBnStSSBc [5] = biological target: T2, KpSSBnStSSBc; test: EMSA; monomer conc.; 2 complexes; 20 mM Tris-HCl pH 8.0, 100 mM NaCl, 25°C 30 min, 1.7 nM DNA, protein 0-5000 nM; native 8% PAGE in TBE at 4°C

Row | Binder | apparent K (half saturation) (KpSSBnPaSSBc [2]) | apparent K (half saturation) (KpSSBnStSSBc [3]) | also measured
1 | dT60 (ssDNA) DNA: TTTTTTTTTTTTTTTTTTTTTTTTTTTTTTTTTTTTTTTTTTTTTTTTTTTTTTTTTTTT | – | – | apparent K (half saturation) (KpSSBnPaSSBc [1]): 230 ± 30 nM
2 | TTTTTTTTTTTTTTTTTTTTTTTTTTTTTTTTTTTTTTTT (ssDNA) [dT40] | 220 ± 30 nM | 120 ± 20 nM | –
3 | TTTTTTTTTTTTTTTTTTTTTTTTT (ssDNA) [dT25] | 390 ± 60 nM | – | –
4 | TTTTTTTTTTTTTTT (ssDNA) [dT15] | – | 260 ± 60 nM | –
5 | TTTTTTTTTTTTTTTTTTTT (ssDNA) [dT20] | – | 110 ± 20 nM | binding result (KpSSBnPaSSBc [4]): no binding
6 | TTTTTTTTTTTTTTTTTTTTTTTTTTTTTTTTTTTTTTTTTTTTT (ssDNA) [dT45] | – | – | apparent K (half saturation) (KpSSBnStSSBc [5]): 160 ± 20 nM
7 | dT55 (ssDNA) DNA: TTTTTTTTTTTTTTTTTTTTTTTTTTTTTTTTTTTTTTTTTTTTTTTTTTTTTTT | 230 ± 30 nM | – | –
